Values quoted from earlier work in paper PMC3433420.
Where two headings read alike, the source gives them in different places.

Tests used:
Conditions in all cases: cited from earlier work
PLCG2-NC (Homo sapiens) = PLCG2-NC (Homo sapiens) (UniProt P16885)
BLK (Homo sapiens) = BLK (Homo sapiens) (UniProt P51451)
PTK6 (Homo sapiens) = PTK6 (Homo sapiens) (UniProt Q13882)
VAV1 (Homo sapiens) = VAV1 (Homo sapiens) (UniProt P15498)
BCAR3 (Homo sapiens) [1] = target: BCAR3 (Homo sapiens) (UniProt O75815)
TNS3 (Homo sapiens) = TNS3 (Homo sapiens) (UniProt Q68CZ2)
PLCG1-NC (Homo sapiens) = PLCG1-NC (Homo sapiens) (UniProt P19174)
SHC1 (Homo sapiens) = SHC1 (Homo sapiens) (UniProt P29353)
CRK (Homo sapiens) = CRK (Homo sapiens) (UniProt P46108)
GRB7 (Homo sapiens) = GRB7 (Homo sapiens) (UniProt Q14451)
RASA1-N (Homo sapiens) [2] = target: RASA1-N (Homo sapiens) (UniProt P20936)
TENC1 (Homo sapiens) = TENC1 (Homo sapiens) (UniProt Q63HR2)
SH2B2 (Homo sapiens) = SH2B2 (Homo sapiens) (UniProt O14492)
PIK3R2-NC (Homo sapiens) = PIK3R2-NC (Homo sapiens) (UniProt O00459)
ABL2 (Homo sapiens) [3] = target: ABL2 (Homo sapiens) (UniProt P42684)
ZAP70-C (Homo sapiens) = ZAP70-C (Homo sapiens) (UniProt P43403)
PIK3R2-C (Homo sapiens) = PIK3R2-C (Homo sapiens) (UniProt O00459)
PIK3R1-NC (Homo sapiens) = PIK3R1-NC (Homo sapiens) (UniProt P27986)
SYK-NC (Homo sapiens) [4] = target: SYK-NC (Homo sapiens) (UniProt P43405)
NCK2 (Homo sapiens) [5] = target: NCK2 (Homo sapiens) (UniProt O43639)
NCK1 (Homo sapiens) = NCK1 (Homo sapiens) (UniProt P16333)
PIK3R3-NC (Homo sapiens) [6] = target: PIK3R3-NC (Homo sapiens) (UniProt Q92569)
SLA (Homo sapiens) = SLA (Homo sapiens) (UniProt Q13239)
PIK3R3-N (Homo sapiens) = PIK3R3-N (Homo sapiens) (UniProt Q92569)
SRC (Homo sapiens) = SRC (Homo sapiens) (UniProt P12931)
VAV3 (Homo sapiens) = VAV3 (Homo sapiens) (UniProt Q9UKW4)
TXK (Homo sapiens) = TXK (Homo sapiens) (UniProt P42681)
PIK3R3-C (Homo sapiens) = PIK3R3-C (Homo sapiens) (UniProt Q92569)
ABL1 (Homo sapiens) = ABL1 (Homo sapiens) (UniProt P00519)
SLA2 (Homo sapiens) = SLA2 (Homo sapiens) (UniProt Q9H6Q3)
PIK3R2-N (Homo sapiens) = PIK3R2-N (Homo sapiens) (UniProt O00459)
HCK (Homo sapiens) = HCK (Homo sapiens) (UniProt P08631)
VAV2 (Homo sapiens) = VAV2 (Homo sapiens) (UniProt P52735)
PIK3R1-N (Homo sapiens) = PIK3R1-N (Homo sapiens) (UniProt P27986)
SHC3 (Homo sapiens) = SHC3 (Homo sapiens) (UniProt Q92529)
CRKL (Homo sapiens) [7] = target: CRKL (Homo sapiens) (UniProt P46109)
PLCG1-C (Homo sapiens) = PLCG1-C (Homo sapiens) (UniProt P19174)
SHC1-PTB (Homo sapiens) = SHC1-PTB (Homo sapiens) (UniProt P29353)
ABL2 (Homo sapiens) [8] = target: ABL2 (Homo sapiens) (UniProt P42684); remark: listed apart in the source
PIK3R3-NC (Homo sapiens) [9] = target: PIK3R3-NC (Homo sapiens) (UniProt Q92569); remark: listed apart in the source
BCAR3 (Homo sapiens) [10] = target: BCAR3 (Homo sapiens) (UniProt O75815); remark: listed apart in the source
SYK-NC (Homo sapiens) [11] = target: SYK-NC (Homo sapiens) (UniProt P43405); remark: listed apart in the source
RASA1-N (Homo sapiens) [12] = target: RASA1-N (Homo sapiens) (UniProt P20936); remark: listed apart in the source
NCK2 (Homo sapiens) [13] = target: NCK2 (Homo sapiens) (UniProt O43639); remark: listed apart in the source
CRKL (Homo sapiens) [14] = target: CRKL (Homo sapiens) (UniProt P46109); remark: listed apart in the source

RASA1-N (Homo sapiens), sequence (P20936 176-446): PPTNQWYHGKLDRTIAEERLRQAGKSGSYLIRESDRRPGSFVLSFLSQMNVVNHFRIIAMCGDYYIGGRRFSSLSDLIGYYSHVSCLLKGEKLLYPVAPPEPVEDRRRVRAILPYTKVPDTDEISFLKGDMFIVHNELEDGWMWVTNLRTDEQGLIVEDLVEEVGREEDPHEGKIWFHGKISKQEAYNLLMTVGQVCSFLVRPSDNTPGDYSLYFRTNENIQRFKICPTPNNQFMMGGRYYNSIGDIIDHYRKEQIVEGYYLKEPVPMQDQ
ABL2 (Homo sapiens), sequence (P42684 168-268): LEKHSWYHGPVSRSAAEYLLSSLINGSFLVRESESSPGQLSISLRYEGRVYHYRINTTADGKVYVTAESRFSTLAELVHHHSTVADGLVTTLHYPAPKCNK
NCK2 (Homo sapiens), sequence (O43639 280-380): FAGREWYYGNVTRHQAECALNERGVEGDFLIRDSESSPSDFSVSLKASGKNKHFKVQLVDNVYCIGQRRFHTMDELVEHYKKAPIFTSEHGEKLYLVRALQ
BCAR3 (Homo sapiens), sequence (O75815 149-258): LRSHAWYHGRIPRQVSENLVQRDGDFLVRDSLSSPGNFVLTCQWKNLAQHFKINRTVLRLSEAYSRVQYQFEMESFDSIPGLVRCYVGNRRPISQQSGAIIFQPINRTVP
CRKL (Homo sapiens), sequence (P46109 9-107): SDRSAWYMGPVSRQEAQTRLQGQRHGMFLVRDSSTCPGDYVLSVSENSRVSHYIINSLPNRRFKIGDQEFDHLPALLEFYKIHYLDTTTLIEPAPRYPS
BLK (Homo sapiens), sequence (P51451 119-225): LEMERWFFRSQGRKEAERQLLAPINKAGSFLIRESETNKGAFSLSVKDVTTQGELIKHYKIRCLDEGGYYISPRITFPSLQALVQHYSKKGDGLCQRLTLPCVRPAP
VAV1 (Homo sapiens), sequence (P15498 666-770): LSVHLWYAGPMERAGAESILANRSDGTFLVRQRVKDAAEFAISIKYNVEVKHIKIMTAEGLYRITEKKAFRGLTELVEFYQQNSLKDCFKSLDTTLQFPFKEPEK
PLCG2-NC (Homo sapiens), sequence (P16885 527-740): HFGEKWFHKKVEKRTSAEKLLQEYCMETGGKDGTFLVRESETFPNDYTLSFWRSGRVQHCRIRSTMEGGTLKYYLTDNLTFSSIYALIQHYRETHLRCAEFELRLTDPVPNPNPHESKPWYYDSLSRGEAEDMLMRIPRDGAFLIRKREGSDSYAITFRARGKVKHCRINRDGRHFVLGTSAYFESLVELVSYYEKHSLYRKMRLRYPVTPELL
GRB7 (Homo sapiens), sequence (Q14451 426-532): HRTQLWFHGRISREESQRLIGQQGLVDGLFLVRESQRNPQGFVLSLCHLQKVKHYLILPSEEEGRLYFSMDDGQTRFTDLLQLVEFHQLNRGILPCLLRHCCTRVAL
PIK3R1-NC (Homo sapiens), sequence (P27986 328-723): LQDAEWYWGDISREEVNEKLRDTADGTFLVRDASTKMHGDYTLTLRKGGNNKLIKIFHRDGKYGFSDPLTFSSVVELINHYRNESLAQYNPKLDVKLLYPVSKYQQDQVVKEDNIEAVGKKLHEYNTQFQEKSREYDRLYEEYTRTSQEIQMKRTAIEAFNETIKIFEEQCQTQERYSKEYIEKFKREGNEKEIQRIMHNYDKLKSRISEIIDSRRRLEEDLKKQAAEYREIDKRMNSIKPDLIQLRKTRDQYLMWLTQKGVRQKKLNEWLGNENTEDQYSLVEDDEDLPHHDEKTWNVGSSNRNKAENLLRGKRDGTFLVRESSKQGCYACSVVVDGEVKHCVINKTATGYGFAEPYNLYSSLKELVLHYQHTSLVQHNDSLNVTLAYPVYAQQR
PIK3R1-N (Homo sapiens), sequence (P27986 328-723): as above
TENC1 (Homo sapiens), sequence (Q63HR2 1135-1252): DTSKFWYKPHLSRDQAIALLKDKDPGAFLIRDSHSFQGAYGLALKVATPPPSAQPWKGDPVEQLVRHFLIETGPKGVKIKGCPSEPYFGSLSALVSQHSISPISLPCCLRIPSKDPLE
TNS3 (Homo sapiens), sequence (Q68CZ2 1167-1287): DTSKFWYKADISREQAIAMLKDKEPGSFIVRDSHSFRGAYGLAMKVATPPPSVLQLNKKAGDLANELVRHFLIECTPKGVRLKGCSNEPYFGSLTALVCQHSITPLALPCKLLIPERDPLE
SLA (Homo sapiens), sequence (Q13239 79-180): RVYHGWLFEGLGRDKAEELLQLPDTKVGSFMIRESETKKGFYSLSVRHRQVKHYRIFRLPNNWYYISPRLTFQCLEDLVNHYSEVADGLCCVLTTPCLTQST
SHC1-PTB (Homo sapiens), sequence (P29353 483-583): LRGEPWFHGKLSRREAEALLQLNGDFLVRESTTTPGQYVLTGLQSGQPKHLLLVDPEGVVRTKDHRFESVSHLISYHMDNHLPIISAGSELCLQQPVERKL
SHC1 (Homo sapiens), sequence (P29353 483-583): as above
CRK (Homo sapiens), sequence (P46108 8-123): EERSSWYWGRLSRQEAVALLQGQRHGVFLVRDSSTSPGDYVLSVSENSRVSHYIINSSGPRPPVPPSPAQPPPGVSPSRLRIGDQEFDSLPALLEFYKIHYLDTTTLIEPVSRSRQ
ABL1 (Homo sapiens), sequence (P00519 122-222): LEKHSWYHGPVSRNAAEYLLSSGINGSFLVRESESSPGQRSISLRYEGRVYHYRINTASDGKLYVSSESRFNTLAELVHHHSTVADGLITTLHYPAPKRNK
VAV2 (Homo sapiens), sequence (P52735 668-772): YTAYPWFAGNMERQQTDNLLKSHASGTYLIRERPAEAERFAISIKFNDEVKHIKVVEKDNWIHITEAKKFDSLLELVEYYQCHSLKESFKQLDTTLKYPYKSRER
SH2B2 (Homo sapiens), sequence (O14492 412-520): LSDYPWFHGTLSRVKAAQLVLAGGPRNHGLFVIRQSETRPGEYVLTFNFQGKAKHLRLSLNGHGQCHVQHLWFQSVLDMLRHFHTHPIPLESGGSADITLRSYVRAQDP
PLCG1-C (Homo sapiens), sequence (P19174 545-761): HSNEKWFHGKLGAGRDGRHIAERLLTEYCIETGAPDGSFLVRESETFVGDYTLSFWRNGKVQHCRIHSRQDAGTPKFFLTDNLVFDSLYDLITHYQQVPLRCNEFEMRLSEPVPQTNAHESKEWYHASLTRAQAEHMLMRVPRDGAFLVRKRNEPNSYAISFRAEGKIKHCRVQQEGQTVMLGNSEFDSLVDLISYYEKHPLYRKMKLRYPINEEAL
VAV3 (Homo sapiens), sequence (Q9UKW4 667-771): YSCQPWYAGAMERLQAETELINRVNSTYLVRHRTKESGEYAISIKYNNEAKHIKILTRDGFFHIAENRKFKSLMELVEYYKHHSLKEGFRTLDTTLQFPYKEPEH

…pYSEDPTVPd
apparent Kd (screen) (PLCG2-NC (Homo sapiens)): 1.06 µM
apparent Kd (screen) (BLK (Homo sapiens)): 0.763 µM

…pYAAMGACP
apparent Kd (screen) (PTK6 (Homo sapiens)): 0.44 µM
apparent Kd (screen) (VAV1 (Homo sapiens)): 2 µM
apparent Kd (screen) (BCAR3 (Homo sapiens) [1]): 2 µM
apparent Kd (screen) (TNS3 (Homo sapiens)): 1.5 µM
apparent Kd (screen) (PLCG1-NC (Homo sapiens)): 0.72 µM
apparent Kd (screen) (SHC1 (Homo sapiens)): 0.595 µM
apparent Kd (screen) (CRK (Homo sapiens)): 0.264 µM
apparent Kd (screen) (GRB7 (Homo sapiens)): 0.979 µM
apparent Kd (screen) (RASA1-N (Homo sapiens) [2]): 0.906 µM
apparent Kd (screen) (TENC1 (Homo sapiens)): 2 µM
apparent Kd (screen) (SH2B2 (Homo sapiens)): 2 µM
apparent Kd (screen) (PIK3R2-NC (Homo sapiens)): 0.078 µM
apparent Kd (screen) (ABL2 (Homo sapiens) [3]): 0.147 µM
apparent Kd (screen) (ZAP70-C (Homo sapiens)): 1.44 µM
apparent Kd (screen) (PIK3R2-C (Homo sapiens)): 0.926 µM
apparent Kd (screen) (PIK3R1-NC (Homo sapiens)): 0.055 µM
apparent Kd (screen) (SYK-NC (Homo sapiens) [4]): 0.596 µM
apparent Kd (screen) (NCK2 (Homo sapiens) [5]): 0.55 µM
apparent Kd (screen) (NCK1 (Homo sapiens)): 0.208 µM
apparent Kd (screen) (PIK3R3-NC (Homo sapiens) [6]): 0.014 µM
apparent Kd (screen) (SLA (Homo sapiens)): 2 µM
apparent Kd (screen) (PIK3R3-N (Homo sapiens)): 0.499 µM
apparent Kd (screen) (SRC (Homo sapiens)): 1.5 µM
apparent Kd (screen) (VAV3 (Homo sapiens)): 1.54 µM
apparent Kd (screen) (TXK (Homo sapiens)): 1.67 µM
apparent Kd (screen) (PIK3R3-C (Homo sapiens)): 0.499 µM
apparent Kd (screen) (ABL1 (Homo sapiens)): 2 µM
apparent Kd (screen) (SLA2 (Homo sapiens)): 2 µM
apparent Kd (screen) (PIK3R2-N (Homo sapiens)): 0.12 µM
apparent Kd (screen) (HCK (Homo sapiens)): 0.581 µM
apparent Kd (screen) (VAV2 (Homo sapiens)): 0.3 µM
apparent Kd (screen) (PIK3R1-N (Homo sapiens)): 0.528 µM
apparent Kd (screen) (SHC3 (Homo sapiens)): 0.636 µM
apparent Kd (screen) (CRKL (Homo sapiens) [7]): 0.435 µM
apparent Kd (screen) (PLCG1-C (Homo sapiens)): 0.689 µM

…pYSEAKTPI
apparent Kd (screen) (SHC1-PTB (Homo sapiens)): 2 µM
apparent Kd (screen) (ABL2 (Homo sapiens) [8]): 0.071 µM
apparent Kd (screen) (PIK3R3-NC (Homo sapiens) [9]): 2 µM
apparent Kd (screen) (BCAR3 (Homo sapiens) [10]): 1.78 µM
apparent Kd (screen) (SYK-NC (Homo sapiens) [11]): 0.923 µM
apparent Kd (screen) (RASA1-N (Homo sapiens) [12]): 0.953 µM
apparent Kd (screen) (NCK2 (Homo sapiens) [13]): 2 µM
apparent Kd (screen) (CRKL (Homo sapiens) [14]): 1.76 µM
